According to patent US9109032:

Molecular target: EphA3 antigen (UniProt P29320)
Assay: ELISA

UniProt P29320, sequence (P29320 21-541 limits assumed): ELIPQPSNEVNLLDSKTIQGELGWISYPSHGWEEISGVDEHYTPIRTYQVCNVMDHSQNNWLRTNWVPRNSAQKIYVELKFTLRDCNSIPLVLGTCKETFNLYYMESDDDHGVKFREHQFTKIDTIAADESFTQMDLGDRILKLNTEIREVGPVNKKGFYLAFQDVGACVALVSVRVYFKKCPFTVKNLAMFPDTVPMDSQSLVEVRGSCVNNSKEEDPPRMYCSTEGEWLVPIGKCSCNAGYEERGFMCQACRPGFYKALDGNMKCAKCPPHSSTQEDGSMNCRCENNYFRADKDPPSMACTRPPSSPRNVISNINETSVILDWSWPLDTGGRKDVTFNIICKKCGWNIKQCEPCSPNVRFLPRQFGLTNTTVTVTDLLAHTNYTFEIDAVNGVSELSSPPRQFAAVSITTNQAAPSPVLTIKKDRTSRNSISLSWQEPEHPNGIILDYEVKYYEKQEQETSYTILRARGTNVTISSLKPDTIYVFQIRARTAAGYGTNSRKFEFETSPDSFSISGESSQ

monoclonal antibody IIIA4
AFFINITY: 2.5 nM
